# In patent publication US20090324573A1, “Pharmaceutical Composition Comprising P43 Protein for the Treatment of Gastric Adenocarcinoma” (priority 2006, published 2009):
# B1: P43: accessory factor of tRNA synthetase of mammals; single-chain protein of 312 amino acids; obtained from Sine Laboratory, Shanghai (protein, UniProt Q12904 2-312, looked up)
# Aminoacyl tRNA synthase …: ANNDAVLKRLEQKGAEADQIIEYLKQQVSLLKEKAILQATLREEKKLRVENAKLKKEIEELKQELIQAEIQNGVKQIPFPSGTPLHANSMVSENVIQSTAVTTVSSGTKEQIKGGTGDEKKAKEKIEKKGEKKEKKQQSIAGSADSKPIDVSRLDLRIGCIITARKHPDADSLYVEEVDVGEIAPRTVVSGLVNHVPLEQMQNRMVILLCNLKPAKMRGVLSQAMVMCASSPEKIEILAPPNGSVPGDRITFDAFPGEPDKELNPKKKIWEQIQPDLHTNDECVATYKGVPFEVKGKGVCRAQTMSNSGIK
# Tests used:
# Type in all cases: in vivo, BALB/cA bare mouse
# Set-up in all cases: TV d 0 / TV d 21: unit not given here
# Details in all cases: for RTV: RTV=Vt/V0; for T/C (%): TRTV/CRTV×100; for Weight (g) Final: final body weight; for Weight (g) First: first (baseline) body weight; for TV d 0: d 0, day of first administration
# [1] = test system: human colon carcinoma HCT-116; assay: Transplanted tumor of human colon carcinoma HCT-116 in bare mouse
# Source text: (§1) Animal Resource, Line and Strain: BALB/cA bare mouse, provided by Experimental Animal Center, Chinese Academy of Sciences, Shanghai, China.
# (§2) Number of animal in each group: 10 mice for negative control group and 5 mice for treating group
# (§3) Transplanted tumor of human colon carcinoma HCT-116 in bare mouse was established by inoculating human colon carcinoma HCT-116 cell strain into hypoderm of bare mouse, with a inoculation concentration of 1-3×10^6. After establishing the transplanted tumor, it was passaged in bare mouse for three generations prior to use.
# (§4) The eugonic tumor tissue was cut into about 1.5 mm^3. It was inoculated into hypodermis in right armpit of bare mouse under aseptic condition. The diameter of the transplanted tumor of the bare mouse was measured by vernier caliper. After the tumor grew to 100-300 mm^3, the mice were grouped randomly. The effect of reagents used for inhibiting tumor was observed dynamically through the method of measuring the diameter of tumor. The diameter of tumor was measured 3 times per week, while measuring the weight of mice. With respect to the mice in an administration group, the mice were administrated by intravenous injection 6 times per week, with respect to the mice in a positive control group, the mice were administrated by intravenous injection 2 times per week; with respect to the mice in a negative control group, the mice were administrated by same amount of physiological saline at the same time.
# (§5) The tumor volume (TV) was calculated as follows:
# (§6) in which a and b represent length and width, respectively. The relative tumor volume (RTV) was calculated depending on the measured results: RTV=Vt/V0, in which V0 represents the tumor volume measured at the first administration (d0), and Vt represents the tumor volume measured at each measurement. The factor for estimating the effect against tumor is the relative tumor growth T/C (%) as follows:
# (§7) TRTV: RTV for treating group; CRTV: RTV for negative control group.
# 100 mg of p43 protein, available from Sine Laboratory in Shanghai, China, was dissolved in physiological saline to form a solution of 1 mg/ml.
# (§8) The solution was administrated to bare mouse by intravenous injection in 2.5 mg p43 protein/kg weight, 5 mg p43 protein/kg weight, and 10 mg p43 protein/kg weight.
# [2] = test system: human nasopharyngeal carcinoma CNE-1; assay: Transplanted tumor of human nasopharyngeal carcinoma CNE-1 in bare mouse
# Source text: as §1, §2
# as §3, with “nasopharyngeal” for “colon”, “CNE-1” for “HCT-116”
# as §4, with “reagents used fro inhibiting tumor” for “reagents used for inhibiting tumor”, “times per week; with respect” for “times per week, with respect”
# as §5, §6, §7
# 100 mg of p43 protein, available from Sine Laboratory in Shanghai, China, was dissolved in physiological saline to form a solution of 1 mg/ml. […]
# [3] = test system: human gastric adenocarcinoma SGC-7901; assay: Transplanted tumor of human gastric adenocarcinoma SGC-7901 in bare mouse
# Source text: as §1
# Bare mouse transplanted with human gastric adenocarcinoma […] was established by subcutaneously inoculating human gastric adenocarcinoma SGC-7901 cell strain into bare mouse, with a inoculation concentration of 1-3×10^6. After establishing the transplanted tumor, it was passaged in bare mouse for three generations prior to use.
# as §4, with “dynamically through measuring the” for “dynamically through the method of measuring the”, “times per week: with respect” for “times per week, with respect”
# as §5
# as §6, with “based” for “depending”, “proliferation” for “growth”
# as §7
# 100 mg of p43 protein, obtained from Sine Laboratory in Shanghai, China, was dissolved in physiological saline to form a solution of 1 mg/ml.
# as §8
# [4] = 2.5 mg/kg intravenous injection 6 times per week
# [5] = 2.5 mg/kg intravenous injection
# [6] = 5 mg/kg intravenous injection 6 times per week
# [7] = 10 mg/kg intravenous injection 6 times per week
molecule,measurement,setting,value
B1,RTV,[1]; [4],5.01 ± 0.92
same,T/C (%),[1]; [4],84.5%
same,TV d 21,[1]; [4],822 ± 145
same,Weight (g) Final,[1]; [4],24.1 ± 1.5 g
same,Weight (g) First,[1]; [4],20.7 g
same,TV d 0,[1]; [5],164 ± 48
same,RTV,[1]; [6],4.51 ± 0.75
same,T/C (%),[1]; [6],76.0%
same,TV d 21,[1]; [6],703 ± 189
same,Weight (g) Final,[1]; [6],23.9 ± 2.2 g
same,Weight (g) First,[1]; [6],21.3 g
same,TV d 0,[1]; 5 mg/kg intravenous injection,156 ± 39
same,RTV,[1]; [7],4.73 ± 1.01
same,T/C (%),[1]; [7],79.7%
same,T/C (%),"[1]; 10 mg/kg intravenous injection 6 times per week, listed as p43",79.79%
same,TV d 21,[1]; [7],761 ± 211
same,Weight (g) Final,[1]; [7],23.5 ± 2.1 g
same,Weight (g) First,[1]; [7],20.9 g
same,TV d 0,[1]; 10 mg/kg intravenous injection,161 ± 52
same,side effect,"[1]; HCT-116 bearing bare mouse, 2.5, 5 and 10 mg/kg intravenous injection",without any obvious side effect
same,inhibition on growth of transplanted tumor,"[1]; HCT-116 in bare mouse, 2.5, 5 and 10 mg/kg intravenous injection",non-significant inhibition
same,RTV,[2]; [4],13.43 ± 5.64
same,T/C (%),[2]; [4],88.9%
same,TV d 21,[2]; [4],1921 ± 201
same,Weight (g) Final,[2]; [4],24.6 ± 2.4 g
same,Weight (g) First,[2]; [4],20.5 ± 1.3 g
same,TV d 0,[2]; [5],143 ± 70
same,RTV,[2]; [6],12.75 ± 5.12
same,T/C (%),[2]; [6],84.4%
same,TV d 21,[2]; [6],1708 ± 154
same,Weight (g) Final,[2]; [6],23.1 ± 1.8 g
same,Weight (g) First,[2]; [6],19.6 ± 0.8 g
same,TV d 0,[2]; 5 mg/kg intravenous injection,134 ± 48
same,RTV,[2]; [7],12.63 ± 4.88
same,T/C (%),[2]; [7],83.6%
same,TV d 21,[2]; [7],1856 ± 173
same,Weight (g) Final,[2]; [7],22.9 ± 2.3 g
same,Weight (g) First,[2]; [7],19.8 ± 1.1 g
same,TV d 0,[2]; 10 mg/kg intravenous injection,147 ± 63
same,side effect,"[2]; CNE-1 bearing bare mouse, 2.5, 5 and 10 mg/kg intravenous injection",without any obvious side effect
same,inhibition on growth of transplanted tumor,"[2]; CNE-1 in bare mouse, 2.5, 5 and 10 mg/kg intravenous injection",non-significant inhibition
same,RTV,[3]; [4],17.14 ± 7.25
same,T/C (%),[3]; [4],81.7%
same,TV d 21,[3]; [4],2400 ± 360
same,Weight (g) Final,[3]; [4],26.7 ± 1.7 g
same,Weight (g) First,[3]; [4],20.3 ± 0.9 g
same,TV d 0,[3]; [5],140 ± 73
same,RTV,[3]; [6],11.37 ± 6.3
same,T/C (%),[3]; [6],54.2%
same,TV d 21,[3]; [6],1648 ± 102
same,Weight (g) Final,[3]; [6],25.1 ± 1.9 g
same,Weight (g) First,[3]; [6],20.5 ± 0.7 g
same,TV d 0,[3]; 5 mg/kg intravenous injection,146 ± 72
same,RTV,[3]; [7],12.99 ± 5.14
same,T/C (%),[3]; [7],61.9%
same,TV d 21,[3]; [7],1715 ± 168
same,Weight (g) Final,[3]; [7],25.4 ± 2.8 g
same,Weight (g) First,[3]; [7],20.7 ± 0.6 g
same,TV d 0,[3]; 10 mg/kg intravenous injection,132 ± 34
same,side effect,"[3]; SGC-7901 bearing bare mouse, 2.5, 5 and 10 mg/kg intravenous injection",without any obvious side effect
same,inhibition on growth of transplanted tumor,"[3]; SGC-7901 in bare mouse, 2.5, 5 and 10 mg/kg intravenous injection",significant inhibition
